From PMC2265524, “ruvA Mutants That Resolve Holliday Junctions but Do Not Reverse Replication Forks” (PLoS Genetics, 2008)
Substitutions are numbered along the chain they refer to.

T1: RuvAz87 (Escherichia coli, UniProt P0A809 1-203, N79D;N100D)
T1 sequence: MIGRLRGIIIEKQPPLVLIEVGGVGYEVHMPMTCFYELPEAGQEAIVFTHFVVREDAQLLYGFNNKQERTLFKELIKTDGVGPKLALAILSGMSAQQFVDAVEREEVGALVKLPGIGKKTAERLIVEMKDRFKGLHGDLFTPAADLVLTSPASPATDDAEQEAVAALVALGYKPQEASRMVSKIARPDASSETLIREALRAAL

T2: RuvAz3 (Escherichia coli, UniProt P0A809 1-203, H29R;K129E;F140S)
T2 sequence: T1 sequence with H29R, D79N, D100N, K129E, F140S

B1: F1 (fork, one arm single-stranded) (structured_DNA)
DNA 1: GACGCTGCCGAATTCTACCAGTGCCTTGCTAGGACATCTTTGCCCACCTGCAGGTTCACCC
DNA 2: ATGGATAGTCGGATCCTCTAGACAGCTCCATGTAGCAAGGCACTGGTAGAATTCGGCAGCGT
DNA 3: TGGGTGAACCTGCAGGTGGGCAAAGATGTCC
B2: F2 (fork, three double-stranded arms) (structured_DNA)
DNA 1: B1 DNA 1
DNA 2: B1 DNA 2
DNA 3: B1 DNA 3
DNA 4: CATGGAGCTGTCTAGAGGATCCGACTATCGA

Key:
RuvAz87 [1] = biological target: T1, RuvAz87; assay: EMSA; 5 mM EDTA; EMSA with ~4-5 ng labelled DNA; 5 mM EDTA (gel 0.5x TBE) or 3 mM MgCl2 without EDTA (gel 0.5x TB + 200 uM MgCl2); buffer as in cited ref 18; salt, pH and temperature not stated; conditions: protein: recombinant; chain copies: 4; label: 5' IRD700 on S24 (IT.01); fork of 3 strands; two arms double-stranded, one single-stranded (5' part of strand 2)
RuvAz3 [2] = biological target: T2, RuvAz3; assay: as above; conditions: protein: recombinant; chain copies: 4; label: 5' IRD700 on S24 (IT.01); fork of 3 strands; two arms double-stranded, one single-stranded (5' part of strand 2)
RuvAz87 [3] = biological target: T1, RuvAz87; assay: EMSA; 3 mM Mg2+; EMSA with ~4-5 ng labelled DNA; 5 mM EDTA (gel 0.5x TBE) or 3 mM MgCl2 without EDTA (gel 0.5x TB + 200 uM MgCl2); buffer as in cited ref 18; salt, pH and temperature not stated; conditions: protein: recombinant; chain copies: 4; label: 5' IRD700 on S24 (IT.01); three-arm fork of 4 strands, all arms double-stranded
RuvAz3 [4] = biological target: T2, RuvAz3; assay: as above; conditions: protein: recombinant; chain copies: 4; label: 5' IRD700 on S24 (IT.01); three-arm fork of 4 strands, all arms double-stranded

| Binder | binding result (RuvAz87 [1]) | binding result (RuvAz3 [2]) | binding result (RuvAz87 [3]) | binding result (RuvAz3 [4]) |
| --- | --- | --- | --- | --- |
| B1 | no binding | no binding | – | – |
| B2 | – | – | no binding | no binding |
